According to US20240425614A1 (NARA MEDICAL UNIVERSITY, published 2024):

Key:
[1] = target: T1, ADAMTS13 in normal human plasma (human, UniProt Q76LX8 75-1427); assay: cell-based or functional assay
T1 sequence (looked up): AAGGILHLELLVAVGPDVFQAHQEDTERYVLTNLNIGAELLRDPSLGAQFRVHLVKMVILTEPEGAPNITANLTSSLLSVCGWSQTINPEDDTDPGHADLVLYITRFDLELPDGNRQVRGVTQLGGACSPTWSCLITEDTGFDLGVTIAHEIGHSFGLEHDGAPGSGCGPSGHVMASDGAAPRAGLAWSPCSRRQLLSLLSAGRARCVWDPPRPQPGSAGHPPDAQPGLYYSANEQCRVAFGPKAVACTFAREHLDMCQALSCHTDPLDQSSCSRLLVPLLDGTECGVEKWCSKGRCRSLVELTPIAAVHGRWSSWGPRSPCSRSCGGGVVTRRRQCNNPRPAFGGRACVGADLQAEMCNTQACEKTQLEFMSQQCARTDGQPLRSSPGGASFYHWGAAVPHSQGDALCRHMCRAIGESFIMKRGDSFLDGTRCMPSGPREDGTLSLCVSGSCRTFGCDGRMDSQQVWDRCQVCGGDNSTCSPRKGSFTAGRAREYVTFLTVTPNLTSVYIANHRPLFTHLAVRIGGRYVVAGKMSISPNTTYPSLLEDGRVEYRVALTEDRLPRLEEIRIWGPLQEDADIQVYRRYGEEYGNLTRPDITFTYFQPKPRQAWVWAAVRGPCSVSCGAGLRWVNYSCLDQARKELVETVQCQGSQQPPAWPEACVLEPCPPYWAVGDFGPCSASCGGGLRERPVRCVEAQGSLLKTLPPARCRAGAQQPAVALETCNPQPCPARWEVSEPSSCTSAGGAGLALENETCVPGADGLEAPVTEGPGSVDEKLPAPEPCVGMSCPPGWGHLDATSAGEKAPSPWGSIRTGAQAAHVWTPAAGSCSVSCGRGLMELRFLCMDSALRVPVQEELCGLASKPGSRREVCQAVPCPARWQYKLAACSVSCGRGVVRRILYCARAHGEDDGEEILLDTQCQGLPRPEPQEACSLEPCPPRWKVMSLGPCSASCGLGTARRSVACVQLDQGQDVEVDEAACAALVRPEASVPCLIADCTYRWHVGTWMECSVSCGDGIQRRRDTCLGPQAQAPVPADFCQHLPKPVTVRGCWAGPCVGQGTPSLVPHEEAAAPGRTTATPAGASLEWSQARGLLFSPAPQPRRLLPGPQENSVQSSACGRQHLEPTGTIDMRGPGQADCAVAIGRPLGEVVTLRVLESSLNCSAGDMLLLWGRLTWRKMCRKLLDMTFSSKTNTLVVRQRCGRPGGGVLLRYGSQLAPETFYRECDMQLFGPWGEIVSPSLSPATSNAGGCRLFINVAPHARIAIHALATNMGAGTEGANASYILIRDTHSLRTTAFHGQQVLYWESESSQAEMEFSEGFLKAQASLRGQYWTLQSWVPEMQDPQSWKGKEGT

[2] = target: von Willebrand factor (VWF) multimer in human plasma, P04275

Binder | ID50 concentration on the VWF cleaving activity of ADAMTS13 (ADAMTS13 activity remaining in human plasma, ELISA) [1] [µg/mL] | VWF multimer analysis (SDS-agarose gel, Western blot) of human plasma under high shear stress [2]
1G2 antibody (antibody, mouse IgG1, kappa, V domains shown) VH: QVQLRESGPGLVAPSQSLSITCTVSGFSLPRYGIHWVRQPPGKGLEWLGVIWAGGSTDYDSALMSRLSISKDTSKSQVFLKMSSLQTDDTAIYYCARAGGSQPFDYWGQGTTLTVSS VL: DIKMTQSPSSMYASLGERVTITCKASRDINTYLSWFQQKPGKSPKTLISRANRLVDGVPSRFSGSGSGQDYSLSISSLEYEDMGFYYCLQYDEFPWTFGGGTKLVIKR | ~7.28 | 
9A7 antibody (antibody, mouse IgG2b, kappa, V domains shown) VH: QVQLKESGPGLVAPSQSLSITCTVSGFSLTGYGIHWVRQPPGKGLEWLGVIWADGTTNSNSALMSRLSISKDNSKSQVFLKMTSLQTDDTAMYHCARAGGSQPFDYWGQGTTLTVSS VL: DIKMTQSPSSMYASLGERVTITCKASQDINSYLSWFQQKPGKSPKTLIFRANRLVDGVPSRFSGSGSGQDYSLTISSLEYEDMEIYYCLQYDEFPWTFGGGTKLEIKR | ~19.5 | 
12D10 antibody (antibody, mouse IgG1, kappa, V domains shown) VH: QVQLKESGPGLVAPSQSLSITCTVSGFSLTRYGVHWVRQPPGKGLEWLGVIWAGGSTNYKSALMSRLNITKDNSKSQVFLKMNGLQTDDTAIYFCARAGGSSSFDYWGQGTTLTVSS VL: DIKMTQSPSSMNASLGERVTITCKASQDINTYLGWFQQKPGKSPKTLIYRANRLVDGVPSRFSGSGSGQGYSLTISSLEYEDMGIYYCLQYDEFPWTFGGGTKLEIKR | ~25.4 | 
ADAMTS13 in normal human plasma (protein) AAGGILHLELLVAVGPDVFQAHQEDTERYVLTNLNIGAELLRDPSLGAQFRVHLVKMVILTEPEGAPNITANLTSSLLSVCGWSQTINPEDDTDPGHADLVLYITRFDLELPDGNRQVRGVTQLGGACSPTWSCLITEDTGFDLGVTIAHEIGHSFGLEHDGAPGSGCGPSGHVMASDGAAPRAGLAWSPCSRRQLLSLLSAGRARCVWDPPRPQPGSAGHPPDAQPGLYYSANEQCRVAFGPKAVACTFAREHLDMCQALSCHTDPLDQSSCSRLLVPLLDGTECGVEKWCSKGRCRSLVELTPIAAVHGRWSSWGPRSPCSRSCGGGVVTRRRQCNNPRPAFGGRACVGADLQAEMCNTQACEKTQLEFMSQQCARTDGQPLRSSPGGASFYHWGAAVPHSQGDALCRHMCRAIGESFIMKRGDSFLDGTRCMPSGPREDGTLSLCVSGSCRTFGCDGRMDSQQVWDRCQVCGGDNSTCSPRKGSFTAGRAREYVTFLTVTPNLTSVYIANHRPLFTHLAVRIGGRYVVAGKMSISPNTTYPSLLEDGRVEYRVALTEDRLPRLEEIRIWGPLQEDADIQVYRRYGEEYGNLTRPDITFTYFQPKPRQAWVWAAVRGPCSVSCGAGLRWVNYSCLDQARKELVETVQCQGSQQPPAWPEACVLEPCPPYWAVGDFGPCSASCGGGLRERPVRCVEAQGSLLKTLPPARCRAGAQQPAVALETCNPQPCPARWEVSEPSSCTSAGGAGLALENETCVPGADGLEAPVTEGPGSVDEKLPAPEPCVGMSCPPGWGHLDATSAGEKAPSPWGSIRTGAQAAHVWTPAAGSCSVSCGRGLMELRFLCMDSALRVPVQEELCGLASKPGSRREVCQAVPCPARWQYKLAACSVSCGRGVVRRILYCARAHGEDDGEEILLDTQCQGLPRPEPQEACSLEPCPPRWKVMSLGPCSASCGLGTARRSVACVQLDQGQDVEVDEAACAALVRPEASVPCLIADCTYRWHVGTWMECSVSCGDGIQRRRDTCLGPQAQAPVPADFCQHLPKPVTVRGCWAGPCVGQGTPSLVPHEEAAAPGRTTATPAGASLEWSQARGLLFSPAPQPRRLLPGPQENSVQSSACGRQHLEPTGTIDMRGPGQADCAVAIGRPLGEVVTLRVLESSLNCSAGDMLLLWGRLTWRKMCRKLLDMTFSSKTNTLVVRQRCGRPGGGVLLRYGSQLAPETFYRECDMQLFGPWGEIVSPSLSPATSNAGGCRLFINVAPHARIAIHALATNMGAGTEGANASYILIRDTHSLRTTAFHGQQVLYWESESSQAEMEFSEGFLKAQASLRGQYWTLQSWVPEMQDPQSWKGKEGT |  | more deficiency in high-molecular-weight VWF multimer and stronger cleavage of VWF were shown with increase in shear stress of 108 dyne/cm^2, 216 dyne/cm^2, and 324 dyne/cm^2
